Biological target: Bovine thrombin (bovine) (UniProt P00735)
Assay: cell-based or functional assay

Q: With r-UTM (from UniProt P07204 19-486) as the substance, how does the Coagulation time, substance 17 nM, bovine fibrinogen 1 mg/ml, bovine thrombin 18 nM; control 28.1 sec read?
A: 29.6 s

Q: What about the IC50 of inhibition of coagulation of bovine fibrinogen (1 mg/ml) by bovine thrombin (18 nM) of the same substance?
A: 80 nM

Q: And the clotting time, human fibrinogen 2.5 mg/ml, bovine thrombin 0.5 U/ml, ATIII (+) (human antithrombin III 250 ug/ml); control 49.5 sec?
A: 80.8 s

Q: And the clotting time, human fibrinogen 2.5 mg/ml, bovine thrombin 0.5 U/ml, ATIII (-); control 43.3 sec?
A: 61.8 s
